Source: the nanobody polyreactivity screen of Harvey et al. (2022)

Assay: yeast display, Sf9 membrane polyspecificity reagent, FACS + sequencing; frameworks hold sequencing errors
In short: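 A nanobody's polyreactivity label depends on the gate it was sorted from. Yeast display cells were stained with 10% biotinylated, detergent-solubilized Sf9 membrane reagent for 1 hour at 4 °C, enriched on streptavidin microbeads and sorted by FACS. The low and high (top ~1%) gates were set on anti-HA fluorescence for expression and streptavidin fluorescence for reagent binding.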

| Sequence | polyreactivity (PSR sort gate) |
| --- | --- |
| PVQLVESGGGLVQAGGSLRLSCAASGFTFRPYAMGWYRPAPGTERELVAAITSGDSTNYADSVKGRFTISRDNAKKTVYLQMNSLKPEDTAVYYCAADSTGRPSVSYDYWGQGTQVTVSS | low polyreactivity |
| QVQLVESGGGLVQAGGSLRLSCAASGFTFGRNTMGWYRQAPGKERELVAAITRRGGTTHYADSVKGRFTISRDNAKNTVYLQMNSLKPEDTAVYYCAADPFNSYYGRYDYWGQGTQVTVSS | high polyreactivity |
| QVQLVESGGGLVQAGGSLRLSFAASGFIFWNYPMGWYRQAPGKERELVAAISKRGGSTYYADSVKGRFTISRDNAKHNVYLQMNSLKPEDTAVYYCNAGRTYTALNGDYWGQGTQVTVSS | high polyreactivity |
| QVQLVESGGGLVQAGGSLRLSCAASGSTLSLYAMGWSRQAPGKERELVAAITSSGGTYYADSVKGRFTISRDNAKNTVYLQMNSLKPEDTADYYCARSRYRAQGKFDYWGQGTQVTVSS | high polyreactivity |
| QVQLVESGGGLVHAGGSLRLSCAASGSIFFIYAMGGYRPAPGTERELVARISQGGASPYYADSVKGRFTISRDNAKTTVYLQMNSLKPEDTVVYYCAAGYTNTRLRPKGYGYYYWGQGTQVTVSW | high polyreactivity |
| QVQLVESVVGLVQAGGSLRLSCAASGRIFAYYAMGWYRQAPGKERELVAAISSSGGGTYYADSVKGRFTISRDNAKNTVYLQMNSLKPEDTAVYYCAKRVRRKYSVSHPYDYWGQGTQVTVSS | high polyreactivity |
| QVQLQESGGGLVQAGGSLRLSCAASGTISQEDWKGWYRQAPGKEREFVAAIGLGSNTNYADSLKGRFTISRDNAKNTVYLQMNSLKQEDTAVYYCAVSVWQYSDHVYRGQGTQVTVSS | low polyreactivity |
| QVQLVESGVGLVQAGGSLRLSCAASGFTFYSNAMGWYRQAPGKERELVAAITGRVGRTYYADSVKGRFTISRDNAKNTVYLLMNSLKPEDTAVYYCAAVYQVSTWGGRYYFRQGYDYWGQGTQVTVSS | high polyreactivity |
| QVQLVESGGGLVQAGGSLRLSCAHSGSISSRYAMGWYRQAPGKERELVARITRSGGSTYYADSVKGRFTISRDNAKNTVYLQMNRLKPEDTAVYYCNKRGTEIGYDYWGQGTQVTVLS | low polyreactivity |
| QVQLVESGGGLVQAGGSLRLSCAASGRIFVINAMGWYRQAPGKERELVAAISQSGGSTYYADSVKGRFTISRDNAKNTVYLQMNSLKPEDTAVYYCNALSNVPYDYWGQGTQVTVSS | low polyreactivity |
| QLQLVESGGGLVQAGGSLRLRCAASGRIFVRYAMGWYRQEPGKERELVAAISTRGGSTYYADSVKGRFTISRDKAKNTVYLQMNSLKAEDTAVYYCASGPRPRPSDYWGQGTQVTGSS | high polyreactivity |
| QVQLVESGGGLVQAGGSLRLSCAASGRTFYRYAMGWYRQAPGKERELVATISRSGGSTYYADSVKGRFTISRDNAKNTVYLQMNSLKPEDTAVFYCNAEGYPWGFYTYDYWGQGTQVTVSS | low polyreactivity |
| QVQLVESGGGLVQAGGSLRLSCAASGSIFPRYAMGWYRQAPGKERELVAGITSGGITYYADSVKGRFTISRDNAKNTVYLQLNSLKPEDTAVYYCAAVYYLVPGNYWGQGTQVTVSS | high polyreactivity |
| QVQLVESGGGLVQAGGSLRLSCAASGSTFYSYAMGWYRQAPGKEREFVAVISWSGGRTRYADSVKGRFTISRDNAKNTVYLQMKSVKPEDTAVYYCNARKWGYSPHRKGDRHFEYWGQGTQVTVSS | low polyreactivity |
| QVQLVESGGGLVQAGGSLRLSCAASGSTFDPYAMGWYRQAPGIERELVAAITGRGGSTYYADSVKGRFTISRDNAKNTVYLQMNSLKPEDTAVYYCNAEGDKRRDRYDYWGQGSQVTVSS | low polyreactivity |
| QVQLVESGGGLDQAAGSLPLSCAASGLIFPVYAMGWYRQAPGKAREFVASIWRGGTTYYADSVKGRFTISRDNAKNTVYLQMNSLNPEDTAVYYCAARYYPSGLVFPFTKYDYWGQGTQVTVSS | high polyreactivity |

| Sequence | polyreactivity (PSR sort gate) |
| --- | --- |
| QVQLVESGGGLVQAGGSLRLRCAASGLIFAEYAIGWYRQAPGKERELVARITSGGSTDYADSVKGRFTISRDNAKNTVYLQMNSLKPEDTAVYYCAARYYSQDKNASTASDFDYWGQGTQVTVSS | low polyreactivity |
| QVQLVESGGGLVQAGGSLRLSCAASGRTLGGYAMGWYRQAPGKERELVAVITWNGGSTYADSVKGRFTISRDNAKNTVYLQMNSLKPEDTAVYYCAADRFNKPYYYWGQGTQVTVSS | high polyreactivity |
| QVQLVESGGGLVQAGGSLRLSCAASGRIFYSNAMGWYRQAPGKERELVAGINYRDGSTYYADSVKGRFTISRDNAKKTVYLQMNSLKPEDTAVYYCAKRRQSYPYKTSTWYSHYSWGQGTQVTVSS | high polyreactivity |
| QDQLVESGRGLDQAGGSLRLICAASGRIFDRYALGWYRQAPGTERELVAAISWNTGSTYYADSVKGRFTISRDNAKNTVYLQMNSLKPEDTAVYYCAAAVRPYKRQDDYWGQGTQVTVSS | high polyreactivity |
| QLQLVESGGGLVQAGGSLRLSCAASGSTLSDNAMGWYRQAPAKERELVASISWSGGTYYADSVKGRFTISRDNANNTVYLQMNSLKPEDTAVYYCAAYIYYNYSRQYWYDYWGQGTQVTVSS | low polyreactivity |
| QVQLVESGGGLVQAGGSLRLSCAASGRIFYRYAMGWYRQAPGKEREFVAAISRSGTTTYYADSVKGRFTISRDNAKNTVYLQMNSLKPEDTAVYYCAVGYRGWDGYWGQGTQVTVSS | high polyreactivity |
| QVQLVESGGGLVQAGGSLRLSCAASGRTLRRNTMGWYRQAPGKERELVAAISWSGGSTYYADSVKGRFTISRDNPKNTVYLQMNSLKPEDTAVYYCAKVPRIGSYEMGYWGQGTQVTVSS | high polyreactivity |
| QDQHVESGGGLVQAGGSLRLSCAASGSTFYIYARGWYRQAPGKERELVARISGSGGSTYYADSVKGRFTISRDNAKNTVYLQMNSLKPEDTAVYYCAAEDIYKYYQYYAFPYYRYDYWGQGTQVTVSS | low polyreactivity |
| QVQLVESGGGLVQAGGSLRLSCAASGRTLDIYTMGWYRQAPGKERELVAAISWSGGSTYYADSVKGRFTISRDNAKNTVYLQMNSLKPEDTAVYYCNRVPISYAGQLEHSLYDFWGQGTQVTVSS | low polyreactivity |
| QVQLVESGGGLVQAGGSLRLSCAASGSTFQNNPMGSYRQAPGKERELVATISRRGGSTYYADSVKGRFTISRDNAKNTVYLQMNRLKPEDTAVYYCAAQAPNYAHRYYYWGQGTQVTVSS | high polyreactivity |
| QVQLVESGGGLFHAGGSLRLICAASGTTFKYYAMGSYRQAPAIEREFVAAISTRTGNTYYADSVKGRFTISRDNAKNTVYLQMNSLKPEDTAVYYCAARPRQGRGYDFYYWGQGTQVTVSS | high polyreactivity |
| QVQLVESGGGLVQAGGSLRLSCAAYGFIFKFYAMGWYRQAPGKERELVAAITSGGGRTYYADSVKGRFPISRDNAKNTVYLQMNSLKAQDSAGYYCAVDYLQYYYKKHYYGGQGTQVTVSS | high polyreactivity |
| QVHLGETGGALVQAGGRLRLSCAASGITLGAYAMGWYRQAPGKERELVARIRIGGSTYYADSVKGRFTISRDYAKNTVFLQMNSLKPEDTAVYYCNALYRYLYRSGDYWGQGTQVTVSS | low polyreactivity |
| QVQLVESGGGLVQAGGSLRLSCAASGFTFKRYDMGWYRQAPGKERELVAAISWNGGSTYYADSVKGRFTISRDNAKNTVYLQMNSLKPEDTAVYYCAARFAYPPKRYYWGQGTQVTVSS | high polyreactivity |
| QVQLVQSGGGLVQAGGSLRLSCAASGSIFYDYAMGWYRQAPGKERELVAAINSGVSTSYADSVKGRFTISRDNAKNTVYLQMNSLKPEDTAVYYCAKDGSSPSPWYGGFGYWGQGTQVTVSS | low polyreactivity |
